Data: patent publication US20150276760A1 (INSERM INSTITUT NATIONAL DE LA SANTE ET DE LA RECHERCHE …, published 2015)

Tests used:
Assay in all cases: Flag/HA immunopurification of MAML1-F/H from SupT1 nuclear extracts, DMSO or GSI (500 nM, 8 hours), western blot (FIG. 2D)
AF4p12 = molecular target: T1, AF4p12 (human, UniProt O94915 2-3013)
T1 construct: also called FRYL

LSD1 = LSD1 (human, UniProt O60341 1-852)
BRG1 = molecular target: T2, BRG1 (human, UniProt P51532 1-1647)
T2 construct: also called endogenous BRG1; PBAF subunit BRG1

PB1 = molecular target: T3, PB1 (human, UniProt Q86U86 1-1689, limits assumed)
T3 construct: also called PBAF subunit PB1

PHF8 = molecular target: T4, PHF8 (human, UniProt Q9UPP1 1-1060, limits assumed)
T4 construct: also called endogenous PHF8; histone demethylase PHF8

T3 sequence (Q86U86 whole entry): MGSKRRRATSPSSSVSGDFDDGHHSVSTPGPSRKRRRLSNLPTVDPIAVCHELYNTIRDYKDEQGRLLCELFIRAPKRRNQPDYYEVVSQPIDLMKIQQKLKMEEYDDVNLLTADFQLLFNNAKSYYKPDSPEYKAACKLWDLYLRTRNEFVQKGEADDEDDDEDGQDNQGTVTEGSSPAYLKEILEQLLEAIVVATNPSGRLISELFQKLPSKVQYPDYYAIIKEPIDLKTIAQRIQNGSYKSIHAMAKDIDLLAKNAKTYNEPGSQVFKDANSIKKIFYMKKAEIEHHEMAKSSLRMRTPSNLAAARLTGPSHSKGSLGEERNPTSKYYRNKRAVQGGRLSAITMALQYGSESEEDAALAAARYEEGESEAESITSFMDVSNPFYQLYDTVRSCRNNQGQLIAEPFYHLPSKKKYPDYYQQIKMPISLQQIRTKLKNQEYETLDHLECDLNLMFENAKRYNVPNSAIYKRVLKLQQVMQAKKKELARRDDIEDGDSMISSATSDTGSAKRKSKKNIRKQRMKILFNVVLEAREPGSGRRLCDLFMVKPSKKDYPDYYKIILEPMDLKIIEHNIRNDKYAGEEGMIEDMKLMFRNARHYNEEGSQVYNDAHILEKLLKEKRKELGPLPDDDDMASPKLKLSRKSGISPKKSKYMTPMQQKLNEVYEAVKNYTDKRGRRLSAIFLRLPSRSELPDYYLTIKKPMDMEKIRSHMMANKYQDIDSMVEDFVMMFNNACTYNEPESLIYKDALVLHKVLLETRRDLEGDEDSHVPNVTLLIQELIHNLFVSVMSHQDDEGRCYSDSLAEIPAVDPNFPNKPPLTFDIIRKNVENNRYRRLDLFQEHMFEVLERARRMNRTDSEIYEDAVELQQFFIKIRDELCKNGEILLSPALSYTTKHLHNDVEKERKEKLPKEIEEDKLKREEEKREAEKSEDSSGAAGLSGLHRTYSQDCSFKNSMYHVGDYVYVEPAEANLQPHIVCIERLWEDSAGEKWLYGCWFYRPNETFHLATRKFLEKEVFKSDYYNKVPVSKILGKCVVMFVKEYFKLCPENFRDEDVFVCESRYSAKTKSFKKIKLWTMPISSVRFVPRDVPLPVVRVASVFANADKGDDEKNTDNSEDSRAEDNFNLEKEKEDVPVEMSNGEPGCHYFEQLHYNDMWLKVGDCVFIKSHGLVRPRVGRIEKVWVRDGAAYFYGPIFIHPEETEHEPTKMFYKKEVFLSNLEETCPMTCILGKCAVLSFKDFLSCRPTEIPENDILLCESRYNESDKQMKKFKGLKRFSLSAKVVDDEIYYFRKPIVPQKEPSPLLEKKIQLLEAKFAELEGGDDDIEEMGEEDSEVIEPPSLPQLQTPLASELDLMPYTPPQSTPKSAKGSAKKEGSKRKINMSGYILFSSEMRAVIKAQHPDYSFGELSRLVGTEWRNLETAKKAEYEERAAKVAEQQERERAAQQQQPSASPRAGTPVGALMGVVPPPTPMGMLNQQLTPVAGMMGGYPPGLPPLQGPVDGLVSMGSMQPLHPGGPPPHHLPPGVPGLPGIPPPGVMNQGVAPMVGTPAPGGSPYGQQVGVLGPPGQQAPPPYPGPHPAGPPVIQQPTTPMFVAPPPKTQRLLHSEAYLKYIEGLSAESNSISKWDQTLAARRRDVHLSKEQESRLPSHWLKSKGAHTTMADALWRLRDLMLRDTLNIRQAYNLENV
T1 sequence (O94915 2-3013 limits assumed): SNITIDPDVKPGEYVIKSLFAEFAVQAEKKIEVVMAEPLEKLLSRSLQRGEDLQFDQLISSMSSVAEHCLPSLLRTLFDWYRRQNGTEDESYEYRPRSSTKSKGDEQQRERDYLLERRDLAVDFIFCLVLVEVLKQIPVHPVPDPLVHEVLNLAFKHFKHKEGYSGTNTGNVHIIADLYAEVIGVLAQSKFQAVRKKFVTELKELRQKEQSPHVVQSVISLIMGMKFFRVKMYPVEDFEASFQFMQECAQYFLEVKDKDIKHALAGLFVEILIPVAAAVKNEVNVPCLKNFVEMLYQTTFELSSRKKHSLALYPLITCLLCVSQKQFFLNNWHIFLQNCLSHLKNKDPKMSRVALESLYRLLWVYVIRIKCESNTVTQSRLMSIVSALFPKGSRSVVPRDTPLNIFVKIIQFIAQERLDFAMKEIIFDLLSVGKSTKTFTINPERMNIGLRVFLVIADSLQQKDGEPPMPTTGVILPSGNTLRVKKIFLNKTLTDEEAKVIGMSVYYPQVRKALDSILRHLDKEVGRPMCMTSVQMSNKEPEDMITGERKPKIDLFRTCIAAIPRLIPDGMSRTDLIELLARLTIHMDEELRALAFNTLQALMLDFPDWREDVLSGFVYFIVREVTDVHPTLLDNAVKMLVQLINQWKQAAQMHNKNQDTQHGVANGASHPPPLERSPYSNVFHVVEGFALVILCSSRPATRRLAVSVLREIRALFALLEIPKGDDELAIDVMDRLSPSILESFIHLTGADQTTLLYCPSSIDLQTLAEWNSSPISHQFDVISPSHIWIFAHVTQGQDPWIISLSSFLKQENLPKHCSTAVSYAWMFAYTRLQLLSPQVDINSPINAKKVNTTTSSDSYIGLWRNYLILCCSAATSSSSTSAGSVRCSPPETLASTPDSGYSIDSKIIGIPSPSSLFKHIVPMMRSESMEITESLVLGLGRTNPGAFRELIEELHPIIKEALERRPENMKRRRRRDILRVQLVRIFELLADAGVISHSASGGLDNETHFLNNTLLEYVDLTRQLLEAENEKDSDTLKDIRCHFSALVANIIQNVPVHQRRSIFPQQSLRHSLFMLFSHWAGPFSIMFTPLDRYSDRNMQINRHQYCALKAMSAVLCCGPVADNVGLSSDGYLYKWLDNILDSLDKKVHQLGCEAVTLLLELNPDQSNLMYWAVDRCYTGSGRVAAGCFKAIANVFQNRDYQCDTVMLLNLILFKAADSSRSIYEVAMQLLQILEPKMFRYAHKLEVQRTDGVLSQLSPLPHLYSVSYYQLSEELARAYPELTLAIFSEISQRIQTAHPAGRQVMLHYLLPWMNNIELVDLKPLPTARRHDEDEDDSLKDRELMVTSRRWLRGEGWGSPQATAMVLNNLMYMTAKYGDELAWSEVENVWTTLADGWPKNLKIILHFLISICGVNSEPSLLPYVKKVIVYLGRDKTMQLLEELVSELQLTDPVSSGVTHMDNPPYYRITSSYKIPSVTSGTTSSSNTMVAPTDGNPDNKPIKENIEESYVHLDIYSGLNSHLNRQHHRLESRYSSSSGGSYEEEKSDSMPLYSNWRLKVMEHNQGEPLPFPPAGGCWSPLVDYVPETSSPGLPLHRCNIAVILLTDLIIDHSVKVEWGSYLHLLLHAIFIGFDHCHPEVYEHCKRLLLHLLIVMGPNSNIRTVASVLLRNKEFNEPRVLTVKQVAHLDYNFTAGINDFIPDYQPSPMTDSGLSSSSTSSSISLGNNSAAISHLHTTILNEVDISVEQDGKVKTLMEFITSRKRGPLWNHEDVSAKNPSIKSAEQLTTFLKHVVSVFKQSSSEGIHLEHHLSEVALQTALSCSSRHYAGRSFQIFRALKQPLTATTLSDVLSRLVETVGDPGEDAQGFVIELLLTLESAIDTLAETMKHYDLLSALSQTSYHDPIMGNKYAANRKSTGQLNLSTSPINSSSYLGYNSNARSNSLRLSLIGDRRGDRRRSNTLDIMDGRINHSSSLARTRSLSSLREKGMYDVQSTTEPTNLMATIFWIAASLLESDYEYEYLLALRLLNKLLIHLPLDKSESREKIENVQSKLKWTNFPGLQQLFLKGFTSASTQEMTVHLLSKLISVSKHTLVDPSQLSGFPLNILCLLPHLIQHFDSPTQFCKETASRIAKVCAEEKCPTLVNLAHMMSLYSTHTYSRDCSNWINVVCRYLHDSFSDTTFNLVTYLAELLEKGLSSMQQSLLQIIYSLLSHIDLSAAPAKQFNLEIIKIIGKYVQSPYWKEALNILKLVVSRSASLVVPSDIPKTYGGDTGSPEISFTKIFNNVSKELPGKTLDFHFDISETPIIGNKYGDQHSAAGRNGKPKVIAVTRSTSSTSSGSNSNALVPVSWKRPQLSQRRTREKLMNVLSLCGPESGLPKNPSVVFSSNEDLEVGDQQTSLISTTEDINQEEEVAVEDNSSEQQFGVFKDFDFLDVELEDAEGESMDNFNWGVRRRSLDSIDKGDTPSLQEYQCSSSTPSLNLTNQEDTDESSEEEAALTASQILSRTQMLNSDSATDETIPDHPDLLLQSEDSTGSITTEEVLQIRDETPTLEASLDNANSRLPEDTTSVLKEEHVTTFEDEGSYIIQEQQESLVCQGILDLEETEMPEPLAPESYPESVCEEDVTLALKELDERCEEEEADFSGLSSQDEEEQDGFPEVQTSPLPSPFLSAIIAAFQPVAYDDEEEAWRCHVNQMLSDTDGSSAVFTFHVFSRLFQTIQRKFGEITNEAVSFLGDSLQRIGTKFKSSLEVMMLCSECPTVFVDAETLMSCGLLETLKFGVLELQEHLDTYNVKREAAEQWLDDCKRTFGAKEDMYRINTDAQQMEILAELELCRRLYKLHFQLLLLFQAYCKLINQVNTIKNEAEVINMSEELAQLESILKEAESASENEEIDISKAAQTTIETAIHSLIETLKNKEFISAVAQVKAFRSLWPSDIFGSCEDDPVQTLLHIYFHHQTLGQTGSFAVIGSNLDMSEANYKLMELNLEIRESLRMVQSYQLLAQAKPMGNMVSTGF

binding result (AF4p12): binds
binding result (LSD1): binds
binding result (BRG1): binds
binding result (PB1): binds
binding result (PHF8): binds
B1: Flag and HA-tagged MAML1 (MAML1-F/H) (other, human, UniProt Q92585 1-1016, looked up)
chain: MVLPTCPMAEFALPRHSAVMERLRRRIELCRRHHSTCEARYEAVSPERLELERQHTFALHQRCIQAKAKRAGKHRQPPAATAPAPAAPAPRLDAADGPEHGRPATHLHDTVKRNLDSATSPQNGDQQNGYGDLFPGHKKTRREAPLGVAISSNGLPPASPLGQSDKPSGADALQSSGKHSLGLDSLNKKRLADSSLHLNGGSNPSESFPLSLNKELKQEPVEDLPCMITGTVGSISQSNLMPDLNLNEQEWKELIEELNRSVPDEDMKDLFNEDFEEKKDPESSGSATQTPLAQDINIKTEFSPAAFEQEQLGSPQVRAGSAGQTFLGPSSAPVSTDSPSLGGSQTLFHTSGQPRADNPSPNLMPASAQAQNAQRALAGVVLPSQGPGGASELSSAHQLQQIAAKQKREQMLQNPQQATPAPAPGQMSTWQQTGPSHSSLDVPYPMEKPASPSSYKQDFTNSKLLMMPSVNKSSPRPGGPYLQPSHVNLLSHQPPSNLNQNSANNQGSVLDYGNTKPLSHYKADCGQGSPGSGQSKPALMAYLPQQLSHISHEQNSLFLMKPKPGNMPFRSLVPPGQEQNPSSVPVQAQATSVGTQPPAVSVASSHNSSPYLSSQQQAAVMKQHQLLLDQQKQREQQQKHLQQQQFLQRQQHLLAEQEKQQFQRHLTRPPPQYQDPTQGSFPQQVGQFTGSSAAVPGMNTLGPSNSSCPRVFPQAGNLMPMGPGHASVSSLPTNSGQQDRGVAQFPGSQNMPQSSLYGMASGITQIVAQPPPQATNGHAHIPRQTNVGQNTSVSAAYGQNSLGSSGLSQQHNKGTLNPGLTKPPVPRVSPAMGGQNSSWQHQGMPNLSGQTPGNSNVSPFTAASSFHMQQQAHLKMSSPQFSQAVPNRPMAPMSSAAAVGSLLPPVSAQQRTSAPAPAPPPTAPQQGLPGLSPAGPELGAFSQSPASQMGGRAGLHCTQAYPVRTAGQELPFAYSGQPGGSGLSSVAGHTDLIDSLLKNRTSEEWMSDLDDLLGSQ
notes: Stably expressed in SupT1; also called FLAG-HA tagged MAML1; not shown: Flag and HA tags (pOZ vector)
